{
  "source": "patent US20080015165A1",
  "about": "“NOVEL POLYPEPTIDE” (KYOWA HAKKO KOGYO CO., LTD., priority 1998, published 2008)",
  "key": {"[1]": {"assay": "Enzyme activity for monofucosylpoly-N-acetyllactosamine sugar chain P1, Namalwa cell extract, HPLC", "assay_type": "biochemical", "details": "relative activity with the activity for P1 assumed to be 1", "method": "Samples were allowed to react in 20 μl of an assay solution [50 mM cacodylate (pH 6.8), 5 mM ATP, 10 mM L-fucose, 75 μM […] (manufactured by SIGMA), 25 mM MnCl2, 15 μM fluorescently labeled sugar chain substrate, 6 μl of the cell lysate above] at 37° C. for 2 hours, followed by treatment at 100° C. for 3 minutes to stop the reaction. Next 200 μl of water was added to the samples, and the supernatant was obtained by centrifugation at 10,000×g for 5 minutes. Using an aliquot of the supernatant (10 μl), products were analyzed by HPLC under the following conditions.\nHPLC: • Column—TSK-gel ODS-80TsQA column (4.6×250 mm; TOSOH CORPORATION) • Eluate—0.02 M ammonium acetate (pH 4.0) containing 7% methanol • Elution temperature—50° C. • Flow rate—1.0 ml/min. • Detection—Fluorescence spectrum photometer FB-920 (manufactured by JASCO Corporation) (excitation wavelength: 330 nm, radiation wavelength: 420 nm)\nThe enzymatic activities of Fuc-TIV, Fuc-TVI and Fuc-TIX were measured using the product P1 or P2 as a substrate in addition to the above substrate (S)."}, "[2]": {"tested_on": "Namalwa cells", "assay": "Indirect fluorescent antibody staining (FACS) of transformed Namalwa cells", "assay_type": "cell-based, human", "details": "FIG. 1", "method": "The plasmids were dissolved in 10 μl of TE buffer. Then each of the plasmids was introduced into Namalwa cells by electroporation method [Cytotechnology, 3, 133 (1990)].\nAfter introducing […] of the plasmids prepared as described above or 4 μg of pAMo (control plasmid) per 1.0×10^6 to 1.6×10^6 cells (200 μl) by electroporation method, the cells were suspended in 8 ml of RPMI1640 media and then cultured in a CO2 incubator for 24 hours at 37° C.\nAfter culturing, the medium was supplemented with G418 (manufactured by GIBCO BRL) to 0.5 mg/ml followed by culturing for another 10 to 14 days, thereby obtaining transformed cells.\nIndirect fluorescent antibody staining using the anti-Lewis x sugar chain antibody (PM-81) was performed as follows.\nAbout 1×10^6 transformed cells were added to a microtube (1.5 ml: manufactured by Eppendolf) and then the cells were collected by centrifugation (550×g, 7 minutes).\nThe cells were washed with 0.9 ml of A-PBS, suspended by adding 20 μl of the anti-Lewis x sugar chain antibody (PM-81) that had been diluted with A-PBS to about 10 μg/ml, and then allowed to react for 1 hour at 4° C. […]\nAfter the reaction, the cells were washed once with 0.9 ml of A-PBS, and then suspended in 0.6 ml of A-PBS, followed by the analysis using a fluorescence activated cell sorter. […]"}},
  "data": [
    {"molecule": "Fuc-TIX: human Fuc-TIX, 359 amino acids (SEQ ID NO:2), α1,3-fucosyltransferase expressed from pAMo-FT9 in Namalwa cells (protein, human) MTSTSKGILRPFLIVCIILGCFMACLLIYIKPTNSWIFSPMESASSVLKMKNFFSTKTDYFNETTILVWVWPFGQTFDLTSCQAMFNIQGCHLTTDRSLYNKSHAVLIHHRDISWDLTNLPQQARPPFQKWIWMNLESPTHTPQKSGIEHLFNLTLTYRRDSDIQVPYGFLTVSTNPFVFEVPSKEKLVCWVVSNWNPEHARVKYYNELSKSIEIHTYGQAFGEYVNDKNLIPTISACKFYLSFENSIHKDYITEKLYNAFLAGSVPVVLGPSRENYENYIPADSFIHVEDYNSPSELAKYLKEVDKNNKLYLSYFNWRKDFTVNLPRFWESHACLACDHVKRHQEYKSVGNLEKWFWN", "values": [
      {"measurement": "Enzymatic activity, substrate P1, product P3", "setting": "[1]", "value": 1.0},
      {"measurement": "synthesis of the Lewis x sugar chain in transformed cells", "setting": "[2]", "value": "can synthesize"},
      {"measurement": "synthesis of the Lewis y sugar chain in transformed cells", "setting": "[2]", "value": "can synthesize"}
    ]}
  ]
}
